Results published in article PMC6607443, “Systematic identification of recognition motifs for the hub protein LC8” (Life Science Alliance, 2019).

Molecular target: dynein light chain LC8 (UniProt P63167 1-89)
Assay: ITC; peptide (500 μM) injected into 25 μM LC8 in the cell; 25°C; 50 mM sodium phosphate, 50 mM NaCl, 1 mM sodium azide, 5 mM β-mercaptoethanol, pH 7.5; single-site model; averages of two to three experiments
Details: both partners purified

Sequence of dynein light chain LC8 (P63167 whole entry): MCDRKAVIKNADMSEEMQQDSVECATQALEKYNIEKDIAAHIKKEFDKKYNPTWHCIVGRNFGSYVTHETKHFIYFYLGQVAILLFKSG

Binder | stoichiometry N [peptide per LC8 chain] | Kd [µM]
PRATAEFSTQTPSP (also called BSN^II; modified BSN peptide) [bassoon (BSN) peptide, modified version with the TQT motif near the C-terminus] | 1 | –
SQNHWTRSTQTTRE [MUC4 peptide (SQNHWTRSTQTTRE)] | 1 | –
PAPPSYSDKGVQTPSK [ZFPM1 peptide] | 1 | –
AKESCNMETQTSST [OFD1 peptide] | 1 | –
YDSMDHLDKQTQTPKT [CCL2 peptide] | 1 | –
SSSTRSIDTQTPSV [GLCCI1 peptide] | 1 | –
EKELRHIGTQISSD [ICE1 peptide] | 1 | –
APMSCDKSTQTPSP [BCL2L11 peptide] | 1 | 0.16
DDNHWTRSTQTTRE [MUC4 peptide with N-terminal aspartates (DDNHWTRSTQTTRE)] | 1 | –
SKTQQTFGSQTECT [TOGARAM1 peptide] | – | > 25
ARAGRSVSTQTGSM [CIZ1 peptide] | 1 | –
YGCTRHQSVQTEDG [MAST1 peptide] | 1 | –
PVLTSATGTQTSPA [MUC3A peptide] | 1 | –
YSRKSRCVSVQTDPT [SON peptide] | 1 | –
SPSPTGLPTQTPGF [ARAP3 peptide] | – | > 25
HPETQDSSTQTDTS [SPAG5 peptide] | 1 | –
QDFMKHLDKKTQTPKL [CCL7 peptide] | 1 | –
GQGAALTTATQTTHLE [GP1BA peptide] | – | > 25
DDHSREKGTQTSGD [SLC9A2 peptide] | 1 | –
DDSGGNATTQTTSD [ROR1 peptide] | – | > 25
NQSFTTASTQTPPQ [CAPRIN2 peptide] | 1 | –
